Data as given in paper PMC8040265, “A polysaccharide utilization locus from the gut bacterium Dysgonomonas mossii encodes functionally distinct carbohydrate esterases” (The Journal of Biological Chemistry, 2021).

Experiments:
Assay in all cases: model substrate hydrolysis, Michaelis-Menten fit
Assay type in all cases: biochemical, Dysgonomonas mossii
Conditions in all cases: 37 °C
[1] = substrate: COC(=O)/C=C/c1cc(OC)c(O)c(OC)c1
Excerpt: (§1) model substrate hydrolysis, Michaelis-Menten fit on DmCE1B_nt

[2] = substrate: COC(=O)/C=C/c1ccc(O)cc1
Excerpt: as §1

[3] = substrate: COC(=O)/C=C/c1ccc(O)c(OC)c1
Excerpt: as §1

[4] = substrate: CC(=O)Oc1ccc2c(C)cc(=O)oc2c1
Excerpt: as §1

[5] = substrate: COC(=O)/C=C/c1cc(OC)c(O)c(OC)c1; remark: listed apart in the source
Excerpt: (§2) model substrate hydrolysis, Michaelis-Menten fit on DmCE1B

[6] = substrate: CC(=O)Oc1ccc2c(C)cc(=O)oc2c1; remark: listed apart in the source
Excerpt: as §2

[7] = substrate: CC(=O)Oc1ccc2c(C)cc(=O)oc2c1; remark: listed apart in the source
Excerpt: model substrate hydrolysis, Michaelis-Menten fit on DmCE1B_ct

[8] = substrate: CC(=O)Oc1ccc([N+](=O)[O-])cc1
Excerpt: (§3) model substrate hydrolysis, Michaelis-Menten fit on DmCE6A

[9] = substrate: CC(=O)Oc1ccc2c(C)cc(=O)oc2c1; remark: listed apart in the source
Excerpt: as §3

[10] = substrate: COC(=O)/C=C/c1cc(OC)c(O)c(OC)c1; remark: listed apart in the source
Excerpt: (§4) model substrate hydrolysis, Michaelis-Menten fit on DmCE1A

[11] = substrate: CC(=O)Oc1ccc([N+](=O)[O-])cc1; remark: listed apart in the source
Excerpt: as §4

[12] = substrate: CC(=O)Oc1ccc2c(C)cc(=O)oc2c1; remark: listed apart in the source
Excerpt: as §4

B1: DmCE1B_nt (Dysgonomonas mossii DSM 22836) (protein)
chain: ISQNYKSVPNGYDIPRTGISHGQIDTVTYYSKTVDTNRKALVYTPPGYSKNKQYPVLYLLHGIGGDEKEWFSHGQPQVILDNLYADKKIVPMIVVLPNGRAMKDDRAIGNIMEAPKVEAFATFEKDLLNDLIPFIQKTYPVLKNQENRALAGLSMGGGQSLNFGLGNLDIFAWVGGFSSAPNTKTPEVLVPNPDDAKKKLKLLWISCGDKDGLLSFSKRTHDYLAKNQVPHVYQVIPNGYHDFNIWKQNLYMFSQLLFKPVTADLIEQYSYIPEEAEVGISASTNIPGAQYPQILSGNRVLFRIKAPDAKRVQVDLGKKYDMVREEEGSWAITTDPIVEGFHYYSILIDGVAVCDPASRTFYGMSRMASGIEIPE
notes: N-terminal CE1 domain + CBM48 (CBM48 is residues 294-393), signal peptide removed; IMAC purified from E. coli BL21(DE3)
Protein B1 has a Km [1] of 290 ± 70 µM, a kcat [1] of 2.7 ± 0.34 s⁻¹ and a kcat/Km [1] of 9200 ± 2400 M⁻¹ s⁻¹. It also gave a Km [2] of 310 ± 90 µM, a kcat [2] of 0.61 ± 0.1 s⁻¹ and a kcat/Km [2] of 2000 ± 700 M⁻¹ s⁻¹. For the same protein, the Km [3] was 160 ± 30 µM, the kcat [3] was 1.8 ± 0.13 s⁻¹ and the kcat/Km [3] was 11000 ± 2000 M⁻¹ s⁻¹. It also gave a Km [4] of 300 ± 40 µM, a kcat [4] of 630 ± 22 s⁻¹ and a kcat/Km [4] of 2.1e+06 ± 300000 M⁻¹ s⁻¹.

B2: DmCE1B (Dysgonomonas mossii DSM 22836) (protein)
chain: ISQNYKSVPNGYDIPRTGISHGQIDTVTYYSKTVDTNRKALVYTPPGYSKNKQYPVLYLLHGIGGDEKEWFSHGQPQVILDNLYADKKIVPMIVVLPNGRAMKDDRAIGNIMEAPKVEAFATFEKDLLNDLIPFIQKTYPVLKNQENRALAGLSMGGGQSLNFGLGNLDIFAWVGGFSSAPNTKTPEVLVPNPDDAKKKLKLLWISCGDKDGLLSFSKRTHDYLAKNQVPHVYQVIPNGYHDFNIWKQNLYMFSQLLFKPVTADLIEQYSYIPEEAEVGISASTNIPGAQYPQILSGNRVLFRIKAPDAKRVQVDLGKKYDMVREEEGSWAITTDPIVEGFHYYSILIDGVAVCDPASRTFYGMSRMASGIEIPEEGVDYYNLKNVPHGQIRQIRYFSDVTKAWRRAFVYTPAGYDANTSQRYPVLYLQHGGGEDETGWPNQGKMDAIIDNLIAEGKAKPMIVVMDNGYAVDPSASSANSPQGLRGLFQNSALEKVFINEIIPLVDKEFRTIADRDHRAMAGLSMGGFQAFQIAMTNLDKFAYVGGFSGGGIIEQGGDFSKMYNNVWSDVDTFNKRVKLIYLSIGTAEPTNMYQTVNNFHKEFEKAGIKHVYYESPGTSHEWLTWRRSLNQFAELLFK
notes: full length, signal peptide removed; CE1-CBM48-CE1; dimer in solution; pET28a-TEVc, IMAC purified from E. coli BL21(DE3)
B2 showed a Km [5] of 360 ± 100 µM, a kcat [5] of 5 ± 0.83 s⁻¹ and a kcat/Km [5] of 14000 ± 4500 M⁻¹ s⁻¹. For the same protein, the Km [6] was 370 ± 60 µM, the kcat [6] was 870 ± 3 s⁻¹ and the kcat/Km [6] was 2.3e+06 ± 400000 M⁻¹ s⁻¹.

B3: DmCE1B_ct (Dysgonomonas mossii DSM 22836) (protein)
chain: AEVGISASTNIPGAQYPQILSGNRVLFRIKAPDAKRVQVDLGKKYDMVREEEGSWAITTDPIVEGFHYYSILIDGVAVCDPASRTFYGMSRMASGIEIPEEGVDYYNLKNVPHGQIRQIRYFSDVTKAWRRAFVYTPAGYDANTSQRYPVLYLQHGGGEDETGWPNQGKMDAIIDNLIAEGKAKPMIVVMDNGYAVDPSASSANSPQGLRGLFQNSALEKVFINEIIPLVDKEFRTIADRDHRAMAGLSMGGFQAFQIAMTNLDKFAYVGGFSGGGIIEQGGDFSKMYNNVWSDVDTFNKRVKLIYLSIGTAEPTNMYQTVNNFHKEFEKAGIKHVYYESPGTSHEWLTWRRSLNQFAELLFK
notes: dimer; IMAC purified from E. coli BL21(DE3)
In the case of B3, the Km [7] is reported as 420 ± 100 µM, the kcat [7] is reported as 11 ± 0.71 s⁻¹ and the kcat/Km [7] is reported as 26000 ± 6600 M⁻¹ s⁻¹.

B4: DmCE6A (Dysgonomonas mossii DSM 22836) (protein)
chain: QDKFHVFLCFGQSNMEGHAKIEAQDTIDIDGRFMMLQTVDCPELGRFKGNWYKAIPPLARCHTGLSPADYFGRTMVANLPSDTKVGVINVAVGGCRIELFDKENFQSYVDQSPEWLKNMVNEYDGNPYVRLIEMAKLAQSQGGVIKGILLHQGESNNGETDWPEKVRKVYDNILKDLNFEPNSIPLLAGELLDEEQYGACANMNLIINTLPNVIPNAHVISSKGCEGVKDRLHFSAAGYRTLGSRYAEKMLQLYNENSLKK
notes: signal peptide removed; single CE6 domain; pET28a-TEVc, IMAC purified from E. coli BL21(DE3)
In the case of B4, the Km [8] is reported as 180 ± 10 µM, the kcat [8] is reported as 59 ± 0.87 s⁻¹ and the kcat/Km [8] is reported as 320000 ± 20000 M⁻¹ s⁻¹. The Km [9] was 29 ± 3 µM.

B5: DmCE1A (Dysgonomonas mossii DSM 22836) (protein)
chain: QDLEGSISSEYNIPEGQYPIVNKDLSATFRIQAPSAQSMQVDICGKKYPMTKDAAGIWEATTDPLVVGFHYYFLLIDGVSVVDPASQTFFGCGRMASGIEIPEPRAESAYYSYQKDIPHGQVRECYYFSKVEGKQRRCFLYTPAEYETNPTKRYPVLYLQHGMGEDETGWSRQGKMAFILDNQISEKKCVPMIVVMDYGNCGYIHGTKKGESQKEFGALFTPILINDIIPYIDSNFRTLSDRDNRAMAGLSWGGHQAFETTLNNIDKFSHIGAFSGALFFLKEDNLKKAYNGVFAQPNVFNKKVHTLFLGMGSEEGMGSKRISEFLKANGINNTYYESAGTHHEWLTWRRCLNQFLPLIFKQN
notes: signal peptide removed; N-terminal CBM48 + CE1 domain; pET28a-TEVc, IMAC purified from E. coli BL21(DE3)
Work on B5 yielded a Km [10] of 180 ± 40 µM, a kcat [10] of 0.13 ± 0.01 s⁻¹ and a kcat/Km [10] of 700 ± 200 M⁻¹ s⁻¹. It also gave a Km [11] of 4400 ± 670 µM, a kcat [11] of 1.03 ± 0.07 s⁻¹ and a kcat/Km [11] of 230 ± 40 M⁻¹ s⁻¹. The Km [12] was 550 ± 60 µM, the kcat [12] was 38.6 ± 1.26 s⁻¹ and the kcat/Km [12] was 70000 ± 8000 M⁻¹ s⁻¹.
